Where “and” joins values, the source holds several entries; their conditions need not be identical. Equal values may be shown once.
Tests used:
[1] = target: T1, Trypanosoma brucei selenocysteine lyase (TbSCLY), recombinant (Trypanosoma brucei, UniProt Q38DC4 1-451, pyridoxal-phosphate (PLP) bound to the active site); assay: ITC
T1 chain: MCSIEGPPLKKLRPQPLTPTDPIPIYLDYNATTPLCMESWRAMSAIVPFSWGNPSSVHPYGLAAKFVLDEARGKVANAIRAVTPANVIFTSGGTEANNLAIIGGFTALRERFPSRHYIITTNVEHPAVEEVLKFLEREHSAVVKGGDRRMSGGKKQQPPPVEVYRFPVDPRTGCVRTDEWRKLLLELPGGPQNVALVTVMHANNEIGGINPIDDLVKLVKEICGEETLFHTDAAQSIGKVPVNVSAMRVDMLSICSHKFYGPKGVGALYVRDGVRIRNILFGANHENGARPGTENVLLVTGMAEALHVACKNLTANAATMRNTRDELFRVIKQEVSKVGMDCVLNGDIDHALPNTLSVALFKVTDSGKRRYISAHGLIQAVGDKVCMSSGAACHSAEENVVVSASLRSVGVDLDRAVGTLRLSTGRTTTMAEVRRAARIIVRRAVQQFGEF

[2] = target: the molecule itself; assay: native gel or EMSA; PhastGel gradient 8-25%, room temperature; 1 mg/mL (methods), 2 mg/mL (legend of Fig 1D); Coomassie stained
[3] = target: the molecule itself; assay: AUC; sedimentation equilibrium; tetramer to dimers; 0.5, 0.75 and 1.0 mg/mL; 8,000, 10,000 and 12,000 rpm, 4°C; global fit in SEDPHAT

B1: Trypanosoma brucei selenophosphate synthetase (TbSEPHS2), recombinant full-length (enzyme, UniProt Q38A34 1-393, looked up)
chain: MSEKEGKVIPETNGMKRPRFDPVKLGLPEEFTLTDYTRLKGCSCKVPQPELLALLQSVSTTPGRRDVGMDCSIVKLQHKDETGKPLYMVSTTDFFFPSVEDPYLQGQIGAANVLSDLYSTGIDRCDTVLMLLAASTDMDKTEREVCTQEMMKGFVDHVRLAGSDVTGGQTVMNPWPLIGGIATSVVAESQMIRPTGLQPGDILVLTKPLGCQIAVNLKQWLRRPSPIFEEQIQGKMDSEEIEELYNAAADGMKRLNRMAAALMHSHGAHGATDVTGFGILGHAKNLGSAQKADVCLVLDSLPMYRGAVKASKLMGDKYRLFEGYAAETSGGLLVAFGTREEAEGYIRELYETDGEPAWVVGRVVRREGSAPYALLQKDYKIIEVGAKVNDKII
notes: selenophosphate synthetase SEPHS2 of Trypanosoma brucei, Tb927.10.9410, 393 residues (from the limits of the truncated constructs); also called SPS2; TbSPSH2
- Kd [1]: 5.2 µM

B2: ΔN(25)-TbSEPHS2, amino acid residues 26-393 (domain or fragment, Trypanosoma brucei, UniProt Q38A34 26-393, looked up)
chain: GLPEEFTLTDYTRLKGCSCKVPQPELLALLQSVSTTPGRRDVGMDCSIVKLQHKDETGKPLYMVSTTDFFFPSVEDPYLQGQIGAANVLSDLYSTGIDRCDTVLMLLAASTDMDKTEREVCTQEMMKGFVDHVRLAGSDVTGGQTVMNPWPLIGGIATSVVAESQMIRPTGLQPGDILVLTKPLGCQIAVNLKQWLRRPSPIFEEQIQGKMDSEEIEELYNAAADGMKRLNRMAAALMHSHGAHGATDVTGFGILGHAKNLGSAQKADVCLVLDSLPMYRGAVKASKLMGDKYRLFEGYAAETSGGLLVAFGTREEAEGYIRELYETDGEPAWVVGRVVRREGSAPYALLQKDYKIIEVGAKVNDKII
notes: selenophosphate synthetase SEPHS2 of Trypanosoma brucei, Tb927.10.9410, residues 26-393; Cloned into pET20b with the printed oligonucleotides
- stoichiometry N [2]: 2 and 4

B3: ΔN(70)-TbSEPHS2, residues 71-393 (domain or fragment, Trypanosoma brucei, UniProt Q38A34 71-393, looked up)
chain: CSIVKLQHKDETGKPLYMVSTTDFFFPSVEDPYLQGQIGAANVLSDLYSTGIDRCDTVLMLLAASTDMDKTEREVCTQEMMKGFVDHVRLAGSDVTGGQTVMNPWPLIGGIATSVVAESQMIRPTGLQPGDILVLTKPLGCQIAVNLKQWLRRPSPIFEEQIQGKMDSEEIEELYNAAADGMKRLNRMAAALMHSHGAHGATDVTGFGILGHAKNLGSAQKADVCLVLDSLPMYRGAVKASKLMGDKYRLFEGYAAETSGGLLVAFGTREEAEGYIRELYETDGEPAWVVGRVVRREGSAPYALLQKDYKIIEVGAKVNDKII
notes: selenophosphate synthetase SEPHS2 of Trypanosoma brucei, Tb927.10.9410, residues 71-393; Cloned into pET20b with the printed oligonucleotides; also called ΔN(70)-SEPHS2
- stoichiometry N [2]: 2 and 4

B4: Leishmania major selenophosphate synthetase (LmSEPHS2), recombinant full-length (enzyme, UniProt Q4Q0M0 1-398, looked up)
chain: MSHKRPQSSAGESNGAVDLKTPRFDPVSLGLPAEFQLTDYTRLKGCSCKLPQPKLLALLQELSATPGQKDVGMDCSIVPLHHTNSKGEALFLVSTTDFFFPSVSDPFLQGQIGAANVLSDLYSMGIPDCDTMLMLLAASTEMDEHERLITTREIMKGFAERARLATTTVTGGQTVMNPWPLIGGVAMAVVSEAEMVRPTGLLCAGDILVLTKPLGCQVAVNLKQWLLRPSPLYEEAIAGHISPEEIEELYNMATDSMRRLNREGARLMRKHGAHGATDVTGFGILGHANNFGAAQAVGDAPRSLCLVLERLPMFKTAVAASKQMNDKYRLLEGYSAETSGGLLVAFPSTTAAAAFCAELTAVDGGCPSWIVGHVEDRATNAVDGVYARLKDGYEIVEV
notes: selenophosphate synthetase SEPHS2 of Leishmania major, LmjF.36.5410; also called LmSEPSH2
- Kd [3]: 178 ± 10 µM
- stoichiometry N [2]: 2 and 4

B5: ΔN(69)-LmSEPHS2, N-terminally truncated L. major selenophosphate synthetase (domain or fragment, Leishmania major, UniProt Q4Q0M0 70-398, looked up)
chain: DVGMDCSIVPLHHTNSKGEALFLVSTTDFFFPSVSDPFLQGQIGAANVLSDLYSMGIPDCDTMLMLLAASTEMDEHERLITTREIMKGFAERARLATTTVTGGQTVMNPWPLIGGVAMAVVSEAEMVRPTGLLCAGDILVLTKPLGCQVAVNLKQWLLRPSPLYEEAIAGHISPEEIEELYNMATDSMRRLNREGARLMRKHGAHGATDVTGFGILGHANNFGAAQAVGDAPRSLCLVLERLPMFKTAVAASKQMNDKYRLLEGYSAETSGGLLVAFPSTTAAAAFCAELTAVDGGCPSWIVGHVEDRATNAVDGVYARLKDGYEIVEV
notes: selenophosphate synthetase SEPHS2 of Leishmania major, LmjF.36.5410, lacking the 69-residue N-terminal region; also called ΔN-LmSEPHS2
- stoichiometry N [2]: 2 and 4

From article PMC7595633 (PLoS Neglected Tropical Diseases, 2020)
